Measured values reported in publication PMC4611711.

Molecular target: truncated Bid (tBid) of cleaved Bid (cBid) 190C labeled with Alexa Fluor 488 (murine) (UniProt P70444)

Kd: 40 nM
Substance: p7 fragment of Bid (from cleaved Bid 190C) (domain or fragment)
